Consider four proteins from patent US7083786.

To fix the notation:
T1: human complement factor C4, P0C0L4
T1 chain: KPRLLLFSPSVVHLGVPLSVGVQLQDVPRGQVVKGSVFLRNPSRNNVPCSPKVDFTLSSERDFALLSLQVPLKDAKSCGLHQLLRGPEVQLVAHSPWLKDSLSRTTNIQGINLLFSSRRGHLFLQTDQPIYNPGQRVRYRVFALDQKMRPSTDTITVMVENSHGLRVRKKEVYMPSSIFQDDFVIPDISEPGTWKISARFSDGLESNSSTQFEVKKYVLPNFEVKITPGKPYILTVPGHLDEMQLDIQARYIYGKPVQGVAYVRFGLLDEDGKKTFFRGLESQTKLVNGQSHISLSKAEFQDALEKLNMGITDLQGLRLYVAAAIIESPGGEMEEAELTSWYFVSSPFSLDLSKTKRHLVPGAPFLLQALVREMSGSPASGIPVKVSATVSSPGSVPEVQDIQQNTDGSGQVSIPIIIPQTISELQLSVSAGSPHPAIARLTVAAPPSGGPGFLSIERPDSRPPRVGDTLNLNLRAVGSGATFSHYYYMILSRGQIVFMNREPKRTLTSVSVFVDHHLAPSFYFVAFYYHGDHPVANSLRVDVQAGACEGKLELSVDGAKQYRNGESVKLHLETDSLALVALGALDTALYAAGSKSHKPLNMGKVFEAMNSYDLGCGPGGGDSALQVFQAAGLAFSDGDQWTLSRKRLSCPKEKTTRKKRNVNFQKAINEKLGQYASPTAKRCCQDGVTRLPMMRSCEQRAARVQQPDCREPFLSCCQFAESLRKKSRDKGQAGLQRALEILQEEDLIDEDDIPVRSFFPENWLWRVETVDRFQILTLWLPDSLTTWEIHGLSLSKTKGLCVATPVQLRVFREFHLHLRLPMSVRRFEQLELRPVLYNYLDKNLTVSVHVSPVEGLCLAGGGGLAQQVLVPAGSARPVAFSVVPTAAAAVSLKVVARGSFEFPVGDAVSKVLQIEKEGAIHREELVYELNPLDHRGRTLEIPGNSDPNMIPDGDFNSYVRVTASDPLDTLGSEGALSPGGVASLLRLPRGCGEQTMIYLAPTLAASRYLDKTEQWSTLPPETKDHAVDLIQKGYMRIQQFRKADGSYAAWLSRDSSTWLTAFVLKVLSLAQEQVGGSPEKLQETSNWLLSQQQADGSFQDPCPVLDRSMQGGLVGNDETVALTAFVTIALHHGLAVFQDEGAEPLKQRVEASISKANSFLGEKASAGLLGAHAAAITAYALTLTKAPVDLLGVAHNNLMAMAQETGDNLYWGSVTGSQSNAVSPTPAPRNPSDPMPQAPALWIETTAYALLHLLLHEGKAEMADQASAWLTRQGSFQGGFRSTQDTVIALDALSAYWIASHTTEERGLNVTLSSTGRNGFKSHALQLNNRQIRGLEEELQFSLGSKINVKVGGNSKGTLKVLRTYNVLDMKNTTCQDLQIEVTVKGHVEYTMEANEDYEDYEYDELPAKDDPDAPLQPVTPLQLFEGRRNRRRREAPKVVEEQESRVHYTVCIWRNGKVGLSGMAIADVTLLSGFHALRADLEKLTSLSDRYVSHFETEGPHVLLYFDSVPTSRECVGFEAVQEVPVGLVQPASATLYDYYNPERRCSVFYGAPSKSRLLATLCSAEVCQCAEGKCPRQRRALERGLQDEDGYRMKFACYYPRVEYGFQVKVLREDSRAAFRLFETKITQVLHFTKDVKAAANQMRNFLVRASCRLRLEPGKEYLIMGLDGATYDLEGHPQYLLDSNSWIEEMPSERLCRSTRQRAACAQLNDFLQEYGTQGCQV

B1: MASP-1 (MBP-associated serine protease) from human plasma (protein)
chain: HTVELNNMFGQIQSPGYPDSYPSDSEVTWNITVPDGFRIKLYFMHFNLESSYLCEYDYVKVETEDQVLATFCGRETTDTEQTPGQEVVLSPGSFMSITFRSDFSNEERFTGFDAHYMAVDVDECKEREDEELSCDHYCHNYIGGYYCSCRFGYILHTDNRTCRVECSDNLFTQRTGVITSPDFPNPYPKSSECLYTIELEEGFMVNLQFEDIFDIEDHPEVPCPYDYIKIKVGPKVLGPFCGEKAPEPISTQSHSVLILFHSDNSGENRGWRLSYRAAGNEPELQPPVHGKIEPSQAKYFFKDQVLVSCDTGYKVLKDNVEMDTFQIECLKDGTWSNKIPTCKIVDCRAPGELEHGLITFSTRNNLTTYKSEIKYSCQEPYYKMLNNNTGIYTCSAQGVWMNKVLGRSLPTCLPVCGLPKFSRKLMARIFNGRPAQKGTTPWIAMLSHLNGQPFCGGSLLGSSWIVTAAHCLHQSLDPKDPTLRDSDLLSPSDFKIILGKHWRLRSDENEQHLGVKHTTLHPKYDPNTFENDVALVELLESPVLNAFVMPICLPEGPQQEGAMVIVSGWGKQFLQRFPETLMEIEIPIVDHSTCQKAYAPLKKKVTRDMICAGEKEGGKDACSGDSGGPMVTLNRERGQWYLVGTVSWGDDCGKKDRYGVYSYIHHNKDWIQRVTGVRN
B2: C1r from human serum C1 (protein)
chain: SIPIPQKLFGEVTSPLFPKPYPNNFETTTVITVPTGYRVKLVFQQFDLEPSEGCFYDYVKISADKKSLGRFCGQLGSPLGNPPGKKEFMSQGNKMLLTFHTDFSNEENGTIMFYKGFLAYYQAVDLDECASRSKSGEEDPQPQCQHLCHNYVGGYFCSCRPGYELQEDRHSCQAECSSELYTEASGYISSLEYPRSYPPDLRCNYSIRVERGLTLHLKFLEPFDIDDHQQVHCPYDQLQIYANGKNIGEFCGKQRPPDLDTSSNAVDLLFFTDESGDSRGWKLRYTTEIIKCPQPKTLDEFTIIQNLQPQYQFRDYFIATCKQGYQLIEGNQVLHSFTAVCQDDGTWHRAMPRCKIKDCGQPRNLPNGDFRYTTTMGVNTYKARIQYYCHEPYYKMQTRAGSRESEQGVYTCTAQGIWKNEQKGEKIPRCLPVCGKPVNPVEQRQRIIGGQKAKMGNFPWQVFTNIHGRGGGALLGDRWILTAAHTLYPKEHEAQSNASLDVFLGHTNVEELMKLGNHPIRRVSVHPDYRQDESYNFEGDIALLELENSVTLGPNLLPICLPDNDTFYDLGLMGYVSGFGVMEEKIAHDLRFVRLPVANPQACENWLRGKNRMDVFSQNMFCAGHPSLKQDACQGDSGGVFAVRDPNTDRWVATGIVSWGIGCSRGYGFYTKVLNYVDWIKKEMEEED
B3: mannan-binding lectin associated serine protease-2 (MASP-2), 76 kDa protein from human plasma (protein)
chain: TPLGPKWPEPVFGRLASPGFPGEYANDQERRWTLTAPPGYRLRLYFTHFDLELSHLCEYDFVKLSSGAKVLATLCGQESTDTERAPGKDTFYSLGSSLDITFRSDYSNEKPFTGFEAFYAAEDIDECQVAPGEAPTCDHHCHNHLGGFYCSCRAGYVLHRNKRTCSALCSGQVFTQRSGELSSPEYPRPYPKLSSCTYSISLEEGFSVILDFVESFDVETHPETLCPYDFLKIQTDREEHGPFCGKTLPHRIETKSNTVTITFVTDESGDHTGWKIHYTSTAQPCPYPMAPPNGHVSPVQAKYILKDSFSIFCETGYELLQGHLPLKSFTAVCQKDGSWDRPMPACSIVDCGPPDDLPSGRVEYITGPGVTTYKAVIQYSCEETFYTMKVNDGKYVCEADGFWTSSKGEKSLPVCEPVCGLSARTTGGRIYGGQKAKPGDFPWQVLILGGTTAAGALLYDNWVLTAAHAVYEQKHDASALDIRMGTLKRLSPHYTQAWSEAVFIHEGYTHDAGFDNDIALIKLNNKVVINSNITPICLPRKEAESFMRTDDIGTASGWGLTQRGFLARNLMYVDIPIVDHQKCTAAYEKPPYPRGSVTANMLCAGLESGGKDSCRGDSGGALVFLDSETERWFVGGIVSWGSMNCGEAGQYGVYTKVINYIPWIENIISDF
B4: C1s from human serum C1 (protein)
chain: EPTMYGEILSPNYPQAYPSEVEKSWDIEVPEGYGIHLYFTHLDIELSENCAYDSVQIISGDTEEGRLCGQRSSNNPHSPIVEEFQVPYNKLQVIFKSDFSNEERFTGFAAYYVATDINECTDFVDVPCSHFCNNFIGGYFCSCPPEYFLHDDMKNCGVNCSGDVFTALIGEIASPNYPKPYPENSRCEYQIRLEKGFQVVVTLRREDFDVEAADSAGNCLDSLVFVAGDRQFGPYCGHGFPGPLNIETKSNALDIIFQTDLTGQKKGWKLRYHGDPMPCPKEDTPNSVWEPAKAKYVFRDVVQITCLDGFEVVEGRVGATSFYSTCQSNGKWSNSKLKCQPVDCGIPESIENGKVEDPESTLFGSVIRYTCEEPYYYMENGGGGEYHCAGNGSWVNEVLGPELPKCVPVCGVPREPFEEKQRIIGGSDADIKNFPWQVFFDNPWAGGALINEYWVLTAAHVVEGNREPTMYVGSTSVQTSRLAKSKMLTPEHVFIHPGWKLLEVPEGRTNFDNDIALVRLKDPVKMGPTVSPICLPGTSSDYNLMDGDLGLISGWGRTEKRDRAVRLKAARLPVAPLRKCKEVKVEKPTADAEAYVFTPNMICAGGEKGMDSCKGDSGGAFAVQDPNDKTKFYAAGLVSWGPQCGTYGLYTRVKNYVDWIMKTMQENSTPRED

For this data set, the target named is T1, human complement factor C4, P0C0L4.
Take B1: the “C4 deposition on a Western blot incubated with human serum (C4 activation)” value (shortened to “C4 deposition”) is given as “no C4 deposition was observed at positions corresponding to MASP-1”.
For the protein B2, the “C4 deposition” value was “C4 deposition, which could be inhibited by enzyme inhibitors, was observed at a position corresponding to C1r and C1s, which are not separated by the technique employed”.
For B3, the “C4 deposition” value is recorded as “C4 was deposited at a position corresponding to the MASP-2 band”.
Regarding B4, the “C4 deposition” value is “C4 deposition, which could be inhibited by enzyme inhibitors, was observed at a position corresponding to C1r and C1s, which are not separated by the technique employed”.
